According to US9493781B2, “Synthetic brassica-derived chloroplast transit peptides” (DOW AGROSCIENCES LLC, priority 2012, dated 2016):

Test system: chloroplasts of maize protoplasts
Experiment: Maize protoplast transient assay: microscopy of TraP8-YFP
Type: cell-based, Zea mays
Conditions: B104 maize protoplasts, 12 hours after transfection
Source text: The Trap8 chimeric chloroplast transit peptide-encoding polynucleotide sequence (SEQ ID NO:5) and the linker-encoding polynucleotide sequence (SEQ ID NO:7) were cloned upstream of the yellow fluorescent protein gene and incorporated into construct pDAB106597 (FIG. 8) for testing via the maize protoplast transient in planta assay. The resulting constructs contained a single plant transcription unit (PTU). The PTU was comprised of the Zea mays Ubiquitin 1 promoter (ZmUbi1 promoter; Christensen, A., Sharrock R., and Quail P., (1992) Maize polyubiquitin genes: structure, thermal perturbation of expression and transcript splicing, and promoter activity following transfer to protoplasts by electroporation, Plant Molecular Biology, 18:675-689), TraP-yellow fluorescent protein fusion gene (TraP8-YFP; US Patent App. 2007/0298412), and Zea mays Peroxidase 5 3′ untranslated region (ZmPer5 3′UTR; U.S. Pat. No. 6,384,207). The constructs were confirmed via restriction enzyme digestion and sequencing.
Seed of Zea mays var. […]
Transfection of 100 to 500 μl of protoplasts (1−5×10^5) was completed by adding the protoplasts to a 2 ml microfuge tube containing about 40 μg of plasmid DNA (pDAB106597), at room temperature. […] Fluorescence of YFP was viewed by microscopy after 12 hours of incubation. […]

B1: TraP8: chimeric chloroplast transit peptide SEQ ID NO:3; N-terminus from Brassica napus EPSPS CTP, C-terminus from Brassica rapa (protein)
chain: MAQSSRICHGVQNPCVIISNLSKSNQNKSPFSVSLKTHQQQRRAYQISSWGLKKSNNGSVIRPVK
modifications: TraP8 chimeric chloroplast transit peptide
notes: N-terminus from Brassica napus EPSPS CTP, C-terminus from Brassica rapa
Localization of YFP fluorescence in maize protoplasts: accumulated within the chloroplasts
